Experiments:
NIH3T3 cells [1] = test: G418-resistant colony formation (cell proliferation) in NIH3T3 cells; type: cell-based, mouse
MEK = details: cited from earlier work
NIH3T3 cells [2] = test: Transformed foci formation (cell transformation) in NIH3T3 cells; type: cell-based, mouse; details: for Inhibition of cell transformation rates: H-RasV12 transformed cells; for Inhibition of cell transformation (foci formation): transformation by H-ras V12 or v-Src, constructs 1 μg each, FIG. 20
Procedure: Transformed foci formation was assayed in NIH3T3 cells transfected with H-ras V12 or v-Src (0.25 ng) plus constructs (1 μg each).
Additionally, experiments where inhibition of ERK signaling using ERK ligands of the invention was compared to siRNAs and a small molecule inhibitor. The commercial siRNAs were designed for target specificity to either the ERK1 (sc-29307) or ERK2 (sc-35335) isoforms (Santa Cruz Biotechnology, Inc.). The small molecule inhibitor, UO126 (1,4-diamino-2,3-dicyano-1,4-bis(2-aminophenylthio) butadiene), inhibits ERK signaling through its upstream effector, MEK, and ERK is the only known substrate for MEK. Assays performed were phenotypic assays. The effects of inhibiting ERK activity were measured by looking at functional properties of the cells associated with the MAPK signaling pathway, such as, cell proliferation and transformation. The MAPK signaling cascade in these experiments is initiated by transfection of the cells with a vector containing a constitutively active proto-oncogene, either H-RasV12 or v-Src, which eventually causes the cells to acquire enhanced growth rate (colony formation) and cell transformation rate (foci formation). Inhibition of ERK activity in this cascade will result in reduced rates of proliferation or transformation as measured by numbers of G418-resitant colonies or foci.
Next, the effect of ERK inhibition on cell transformation was investigated using two means of initiating signaling cascades that lead to this biological property (FIG. 20). The first method is the constitutively active Ras mutant used herein above. The second is a constitutively active nonreceptor tyrosine kinase v-Src mutant (pp 60v-src) that also leads to cell transformation, potentially by multiple signaling pathways including the Ras-Raf-MEK-ERK pathway. […] However, when transformation was initiated with v-Src, there was a difference in the inhibition specificity arising from use of SEQ ID NO:1 localized to the ER and PLA. […] That is, ER-localized SEQ ID NO:1 has a significant effect on transformation induced by H-RasV12 but little to no effect when transformation is induced by v-Src.

ERK = test: Localized inhibition of ERK-mediated myelin basic protein phosphorylation in Cos7 cells; type: cell-based
Source text: A constitutively-active form of the RasV12 protein, a known activator of MAPK signaling pathways, was used to activate ERK kinase in defined regions of Cos7 cells. Several fusion proteins as described by Matallanas et al. Mol Cell Biol. 2006 January; 26(1):100-116 (hereby incorporated by reference), were used to activate ERK kinase in specific subcellular compartments. The constitutively-active RasV12 protein promoted cell-wide activation of ERK. The Lck-RasV 12 fusion protein activated ERK-protein associated with lipid rafts in or near the plasma membrane. […] Lane 1: control. Lane 2: ERK activity in cells expressing active Lck-RasV12 fusion protein. Lane 3: ERK activity in cells co-expressing active Lck-RasV12 fusion protein, and ERK decoy protein (ER localization signal, a c-Myc epitope tag, and the ERK polyligand of SEQ ID NO:1). Lane 4: ERK activity in cells co-expressing active Lck-RasV12 fusion protein, and CAT fragment-containing ER localization control protein. Lane 5: ERK activity in cells expressing active M1-RasV12 fusion protein. Lane 6: ERK activity in cells co-expressing active M1-RasV12 fusion protein, and ERK decoy protein. Lane 7: ERK activity in cells co-expressing active M1-RasV12 fusion protein, and CAT fragment-containing ER localization control protein. […]
The localized ERK ligands were detected by immunostaining for the c-myc epitope tag.

[3] = pancellular polyligand, vector 1 μg, colonies counted after 15 days, FIG. 18
[4] = SEQ ID NO:1 fused to localization signals, constructs 1 μg each, 15 days, FIG. 19

Molecule: N#CC(=C(N)Sc1ccccc1N)C(C#N)=C(N)Sc1ccccc1N [UO126, 1,4-diamino-2,3-dicyano-1,4-bis(2-aminophenylthio) butadiene, reference compound]
- Inhibition of colony formation (NIH3T3 cells [1]; UO126 1 μM, colonies counted after 15 days, FIG. 18): very effective
- Potency for MEK (MEK): ~70 nM

B1: SEQ ID NO:5: ERK heteropolyligand of SEQ ID NOS:32, 98, 33, 34, 35, 100, 36, 37, 107, Xaa alanine, with spacers (protein)
chain: PPLMAPPFYPQKGRKPRDLELPLAAAAKQAEAVTAPRGAGAKNIVTPRAPPPSQGKGGGGTLSPIAPRAPAKLSFQFPSSAGPGAEFLKPIESSILAQRRVRKLPSTAGAGKRELVEPLAPSGEAPNQALLRAAGGYSPTAPTYSPTAPKKKGGAATPTAAHSGSHLFGFP
modifications: Synthetic polyligand
- Inhibition of cell proliferation (G418-resistant colony formation) (NIH3T3 cells [1]; [3]): partial inhibition
- Inhibition of cell transformation rates (NIH3T3 cells [2]): ~50%
- Inhibition of cell transformation (foci formation) (NIH3T3 cells [2]): inhibited cell transformation

B2: SEQ ID NO:1: ERK heteropolyligand A-S1-B-S2-C-S3-D-S4-E-S5-F of SEQ ID NOS:91, 97, 28, 29, 30, 31, Xaa alanine, with spacers (protein)
chain: MPKKKPTPIQLNPAAKGRKPRDLELPAAAATGPLAPGPFGAGAYSPTAPTYSPTAPKKKGGGGAPRAPGGRRAGAGRRPRAPAKLSFFFPS
modifications: Synthetic polyligand
- Inhibition of cell proliferation (G418-resistant colony formation) (NIH3T3 cells [1]; [3]): partial inhibition
- Inhibition of cell transformation rates (NIH3T3 cells [2]): ~50%
- Inhibition of cell transformation (foci formation) (NIH3T3 cells [2]): inhibited cell transformation
- ERK activity in the endoplasmic reticulum reduced (MBP phosphorylation) (ERK; Cos7 cells with ER-active ERK (M1-RasV12), SEQ ID NO:1 co-expressed as fusion with ER localization signal and c-Myc tag): approximately 60%
- Inhibition of ERK activity as measured by phosphorylation of myelin basic protein (MBP) (ERK; ERK activated at plasma membrane, ER or cell wide by localized Ras overexpression): location-selective inhibition of ERK activity at the endoplasmic reticulum

B3: NLS: SEQ ID NO:1 fused to a nuclear localization signal and c-Myc epitope tag (protein)
chain: MPKKKPTPIQLNPAAKGRKPRDLELPAAAATGPLAPGPFGAGAYSPTAPTYSPTAPKKKGGGGAPRAPGGRRAGAGRRPRAPAKLSFFFPS
modifications: left off: small tags and cut ends
- Inhibition of cell proliferation (G418-resistant colony formation) (NIH3T3 cells [1]; [4]): slight inhibition

B4: PLA-localized SEQ ID NO:1: SEQ ID NO:1 targeted to the plasma membrane (protein)
chain: MPKKKPTPIQLNPAAKGRKPRDLELPAAAATGPLAPGPFGAGAYSPTAPTYSPTAPKKKGGGGAPRAPGGRRAGAGRRPRAPAKLSFFFPS
modifications: left off: small tags and cut ends
- Inhibition of cell proliferation (G418-resistant colony formation) (NIH3T3 cells [1]; [4]): greatest degree of inhibition
- Inhibition of cell transformation rates (NIH3T3 cells [2]): ~50%
- Decrease in transformation (NIH3T3 cells [2]; transformation initiated with v-Src): ~60%

B5: NXP: SEQ ID NO:1 fused to a nuclear-exclusion localization signal and c-Myc epitope tag (protein)
chain: MPKKKPTPIQLNPAAKGRKPRDLELPAAAATGPLAPGPFGAGAYSPTAPTYSPTAPKKKGGGGAPRAPGGRRAGAGRRPRAPAKLSFFFPS
modifications: left off: small tags and cut ends
- Inhibition of cell proliferation (G418-resistant colony formation) (NIH3T3 cells [1]; [4]): slight inhibition

From patent US8283445B2, “Extracellular-signal-regulated-kinase (ERK) heteropolyligand polypeptide” (Intrexon Corporation, priority 2006, dated 2012)
